Measurements from the Human Domainome abundance scans (Beltran et al. 2025).
± gives the uncertainty stated by the source.

B1: CD2-associated protein, residues 109 to 169; numbered along this chain, Q9Y5K6 (parent)
chain: KKRQCKVLFEYIPQNEDELELKVGDIIDINEEVEEGWWSGTLNNKLGLFPSNFVKELEVTD

Variants of: B1
Assay: abundance fitness (aPCA) (normalised: wild type 0, dead -1); higher = more abundant; growth selection in yeast, the domain comes from the species named
Settings: Homo sapiens

Which abundance fitness does the source give for KKRQCKVLFEYIPQNEDELELKVGDIIDINEEVERGWWSGTLNNKLGLFPSNFVKELEVTD [E35R] here?
Its abundance fitness is -0.15 ± 0.12.

Which abundance fitness does the source give for KKRQCKVLFEYIPQNEDELELKVGDIIDINEEVEYGWWSGTLNNKLGLFPSNFVKELEVTD [E35Y] here?
Its abundance fitness is -0.395 ± 0.3.

Which abundance fitness does the source give for KKRQCKVLFEYIPQNEDELELKVGDIIDINEEVEKGWWSGTLNNKLGLFPSNFVKELEVTD [E35K] here?
The abundance fitness was -0.352 ± 0.17.

With KKRQCKVLFEYIPQNEDELELKVGDIIDINEEVENGWWSGTLNNKLGLFPSNFVKELEVTD [E35N] as the variant, how does the abundance fitness read?
The abundance fitness was -0.12 ± 0.26.

Which abundance fitness does the source give for KKRQCKVLFEYIPQNEDELELKVGDIIDINEEVETGWWSGTLNNKLGLFPSNFVKELEVTD [E35T] here?
The abundance fitness was -0.185 ± 0.15.

With KKRQCKVLFEYIPQNEDELELKVGDIIDINEEVEAGWWSGTLNNKLGLFPSNFVKELEVTD [E35A] as the variant, how does the abundance fitness read?
The abundance fitness was -0.226 ± 0.2.

Which abundance fitness does the source give for KKRQCKVLFEYIPQNEDELELKVGDIIDINEEVESGWWSGTLNNKLGLFPSNFVKELEVTD [E35S] here?
The abundance fitness was 0.213 ± 0.13.

With KKRQCKVLFEYIPQNEDELELKVGDIIDINEEVEQGWWSGTLNNKLGLFPSNFVKELEVTD [E35Q] as the variant, how does the abundance fitness read?
Its abundance fitness is -0.153 ± 0.19.

Which abundance fitness does the source give for KKRQCKVLFEYIPQNEDELELKVGDIIDINEEVEVGWWSGTLNNKLGLFPSNFVKELEVTD [E35V] here?
The abundance fitness was -0.15 ± 0.098.

For KKRQCKVLFEYIPQNEDELELKVGDIIDINEEVELGWWSGTLNNKLGLFPSNFVKELEVTD [E35L], which abundance fitness is on record?
Its abundance fitness is -0.452 ± 0.13.

For KKRQCKVLFEYIPQNEDELELKVGDIIDINEEVEPGWWSGTLNNKLGLFPSNFVKELEVTD [E35P], which abundance fitness is on record?
Its abundance fitness is -0.139 ± 0.22.

Which abundance fitness does the source give for KKRQCKVLFEYIPQNEDELELKVGDIIDINEEVEHGWWSGTLNNKLGLFPSNFVKELEVTD [E35H] here?
Its abundance fitness is -0.318 ± 0.35.

With KKRQCKVLFEYIPQNEDELELKVGDIIDINEEVECGWWSGTLNNKLGLFPSNFVKELEVTD [E35C] as the variant, how does the abundance fitness read?
The abundance fitness was 0.015 ± 0.15.

Which abundance fitness does the source give for KKRQCKVLFEYIPQNEDELELKVGDIIDINEEVEDGWWSGTLNNKLGLFPSNFVKELEVTD [E35D] here?
The abundance fitness was -0.146 ± 0.33.

Which abundance fitness does the source give for KKRQCKVLFEYIPQNEDELELKVGDIIDINEEGEEGWWSGTLNNKLGLFPSNFVKELEVTD [V33G] here?
The abundance fitness was -0.483 ± 0.43.

For KKRQCKVLFEYIPQNEDELELKVGDIIDINEEFEEGWWSGTLNNKLGLFPSNFVKELEVTD [V33F], which abundance fitness is on record?
The abundance fitness was -0.242 ± 0.23.

Which abundance fitness does the source give for KKRQCKVLFEYIPQNEDELELKVGDIIDINEEIEEGWWSGTLNNKLGLFPSNFVKELEVTD [V33I] here?
The abundance fitness was 0.129 ± 0.23.

With KKRQCKVLFEYIPQNEDELELKVGDIIDINEEMEEGWWSGTLNNKLGLFPSNFVKELEVTD [V33M] as the variant, how does the abundance fitness read?
Its abundance fitness is 0.085 ± 0.27.

For KKRQCKVLFEYIPQNEDELELKVGDIIDINEESEEGWWSGTLNNKLGLFPSNFVKELEVTD [V33S], which abundance fitness is on record?
Its abundance fitness is -0.186 ± 0.16.

For KKRQCKVLFEYIPQNEDELELKVGDIIDINEEEEEGWWSGTLNNKLGLFPSNFVKELEVTD [V33E], which abundance fitness is on record?
Its abundance fitness is -0.192 ± 0.2.

With KKRQCKVLFEYIPQNEDELELKVGDIIDINEEREEGWWSGTLNNKLGLFPSNFVKELEVTD [V33R] as the variant, how does the abundance fitness read?
Its abundance fitness is 0.108 ± 0.17.

For KKRQCKVLFEYIPQNEDELELKVGDIIDINEEQEEGWWSGTLNNKLGLFPSNFVKELEVTD [V33Q], which abundance fitness is on record?
Its abundance fitness is -0.55 ± 0.29.

Which abundance fitness does the source give for KKRQCKVLFEYIPQNEDELELKVGDIIDINEETEEGWWSGTLNNKLGLFPSNFVKELEVTD [V33T] here?
Its abundance fitness is -0.452 ± 0.24.

With KKRQCKVLFEYIPQNEDELELKVGDIIDINEEKEEGWWSGTLNNKLGLFPSNFVKELEVTD [V33K] as the variant, how does the abundance fitness read?
The abundance fitness was -0.262 ± 0.15.

With KKRQCKVLFEYIPQNEDELELKVGDIIDINEEAEEGWWSGTLNNKLGLFPSNFVKELEVTD [V33A] as the variant, how does the abundance fitness read?
The abundance fitness was -0.132 ± 0.23.

Which abundance fitness does the source give for KKRQCKVLFEYIPQNEDELELKVGDIIDINEEYEEGWWSGTLNNKLGLFPSNFVKELEVTD [V33Y] here?
The abundance fitness was -0.349 ± 0.4.

For KKRQCKVLFEYIPQNEDELELKVGDIIDINEEHEEGWWSGTLNNKLGLFPSNFVKELEVTD [V33H], which abundance fitness is on record?
The abundance fitness was -0.404 ± 0.34.

Which abundance fitness does the source give for KKRQCKVLFEYIPQNEDELELKVGDIIDINEEVEEGDWSGTLNNKLGLFPSNFVKELEVTD [W37D] here?
Its abundance fitness is -0.387 ± 0.4.

Which abundance fitness does the source give for KKRQCKVLFEYIPQNEDELELKVGDIIDINEEVEEGHWSGTLNNKLGLFPSNFVKELEVTD [W37H] here?
Its abundance fitness is -0.656 ± 0.31.

For KKRQCKVLFEYIPQNEDELELKVGDIIDINEEVEEGPWSGTLNNKLGLFPSNFVKELEVTD [W37P], which abundance fitness is on record?
Its abundance fitness is -0.541 ± 0.2.

For KKRQCKVLFEYIPQNEDELELKVGDIIDINEEVEEGGWSGTLNNKLGLFPSNFVKELEVTD [W37G], which abundance fitness is on record?
Its abundance fitness is -0.74 ± 0.43.

With KKRQCKVLFEYIPQNEDELELKVGDIIDINEEVEEGLWSGTLNNKLGLFPSNFVKELEVTD [W37L] as the variant, how does the abundance fitness read?
Its abundance fitness is -0.344 ± 0.12.

With KKRQCKVLFEYIPQNEDELELKVGDIIDINEEVEEGSWSGTLNNKLGLFPSNFVKELEVTD [W37S] as the variant, how does the abundance fitness read?
The abundance fitness was -0.77 ± 0.24.

With KKRQCKVLFEYIPQNEDELELKVGDIIDINEEVEEGFWSGTLNNKLGLFPSNFVKELEVTD [W37F] as the variant, how does the abundance fitness read?
The abundance fitness was -0.201 ± 0.18.

For KKRQCKVLFEYIPQNEDELELKVGDIIDINEEVEEGRWSGTLNNKLGLFPSNFVKELEVTD [W37R], which abundance fitness is on record?
The abundance fitness was -0.375 ± 0.14.

Which abundance fitness does the source give for KKRQCKVLFEYIPQNEDELELKVGDIIDINEEVEEGEWSGTLNNKLGLFPSNFVKELEVTD [W37E] here?
The abundance fitness was 0 ± 0.24.

For KKRQCKVLFEYIPQNEDELELKVGDIIDINEEVEEGAWSGTLNNKLGLFPSNFVKELEVTD [W37A], which abundance fitness is on record?
Its abundance fitness is -0.855 ± 0.32.

For KKRQCKVLFEYIPQNEDELELKVGDIIDINEEVEEGYWSGTLNNKLGLFPSNFVKELEVTD [W37Y], which abundance fitness is on record?
The abundance fitness was -0.448 ± 0.48.

For KKRQCKVLFEYIPQNEDELELKVGDIIDINEEVEEGKWSGTLNNKLGLFPSNFVKELEVTD [W37K], which abundance fitness is on record?
The abundance fitness was -0.681 ± 0.48.

Which abundance fitness does the source give for KKRQCKVLFEYIPQNEDELELKVGDIIDINEEVEEGIWSGTLNNKLGLFPSNFVKELEVTD [W37I] here?
Its abundance fitness is -0.524 ± 0.24.

For KKRQCKVLFEYIPQNEDELELKVGDIIDINEEVEEGVWSGTLNNKLGLFPSNFVKELEVTD [W37V], which abundance fitness is on record?
Its abundance fitness is -0.255 ± 0.13.

With KKRQCKVLFEYIPQNEDELELKVGDIIDINEEVEEGTWSGTLNNKLGLFPSNFVKELEVTD [W37T] as the variant, how does the abundance fitness read?
Its abundance fitness is -0.366 ± 0.28.

With KKRQCKVLFEYIPQNEDELELKVGDIIDINEEVEEGMWSGTLNNKLGLFPSNFVKELEVTD [W37M] as the variant, how does the abundance fitness read?
Its abundance fitness is -0.267 ± 0.12.

Which abundance fitness does the source give for KKRQCKVLFEYIPQNEDELELKVGDIIDINEEVEEGWASGTLNNKLGLFPSNFVKELEVTD [W38A] here?
The abundance fitness was -0.752 ± 0.22.
